Measurements published in US20190092839A1 (INSTITUTE FOR BASIC SCIENCE, published 2019).

Target: T1, iRFP-pMagH-C-term VHHActin
T1 construct: not shown: iRFP fluorescent protein of the piRFP construct (Addgene 31857)
Test: inferred from relocalisation of fluorescence in HeLa cells after 488 nm light (nMagH with pMagH)

T1 sequence (chain, as listed by the source): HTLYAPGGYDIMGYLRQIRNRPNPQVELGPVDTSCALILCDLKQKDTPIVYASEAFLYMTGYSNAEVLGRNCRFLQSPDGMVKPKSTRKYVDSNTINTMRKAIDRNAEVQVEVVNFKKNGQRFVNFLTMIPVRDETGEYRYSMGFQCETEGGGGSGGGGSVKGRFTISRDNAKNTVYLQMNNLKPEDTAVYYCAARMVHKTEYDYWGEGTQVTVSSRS

- binding result: binds
B1: N-term VHHActin-nMagH-mCherry (other)
chain: MAQVQLVESGGGLTQAGGSLRLSCATSGLIFSAFGMGWFRQAPGKEREFVGGINWRGSTNYGDFGGGGSGGGGSHTLYAPGGYDIMGYLDQIGNRPNPQVELGPVDTSCALILCDLKQKDTPIVYASEAFLYMTGYSNAEVLGRNCRFLQSPDGMVKPKSTRKYVDSNTINTIRKAIDRNAEVQVEVVNFKKNGQRFVNFLTIIPVRDETGEYRYSMGFQCETE
notes: not shown: mCherry red fluorescent protein of the pmCherry construct (engineered)
